Assay results as given in the supplement of paper PMC7125110.
± gives the standard error. Fewer inactive variants are shown than the library holds.

B1: glmS ribozyme (parent)
chain: AUAAAAGCGCCAGAACUACAGAAAUGUAGUUGACGAGGAGGAGGUUUAUCGAAUUUUCGGCGGAUGCCUCCAAA

Experiments:
Settings in all cases: with glucosamine-6-phosphate
[1] = variants of: B1; experiment: self-cleavage kobs at 160 uM GlcN6P; higher = faster cleavage; RNA array
In short: (§1)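 Sequenced MiSeq chips were the platform: E. coli RNA polymerase transcribed barcoded ribozyme variants on them in situ, and a hybridised Cy3 probe tracked these at 37 °C. After glucosamine-6-phosphate (40 μM to 10 mM) in HEPES/KCl/Mg(OAc)2 buffer was flowed in, tiles were imaged over ~14 h. Signals normalised to baseline and to non-cleaving reference variants were reduced to per-tile medians and fit to one- or two-exponential decays to obtain kobs. kcat and KM were derived through weighted Michaelis–Menten fits across concentrations.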

[2] = variants of: B1; experiment: self-cleavage kobs at 640 uM GlcN6P; higher = faster cleavage; RNA array
In short: as §1

[3] = variants of: B1; experiment: self-cleavage kobs at 2500 uM GlcN6P; higher = faster cleavage; RNA array
In short: as §1

[4] = variants of: B1; experiment: self-cleavage kobs at 10000 uM GlcN6P; higher = faster cleavage; RNA array
In short: as §1

Variant	self-cleavage kobs at 160 uM GlcN6P [1]	self-cleavage kobs at 640 uM GlcN6P [2]	self-cleavage kobs at 2500 uM GlcN6P [3]	self-cleavage kobs at 10000 uM GlcN6P [4]
AUAAAAGCGCCAGAACUACAGAAAUGUAGGUGACGAGGAGGGGGUUUAUCGAAUUCUCGGCGGAUGCCUCCAAA [U30G A42G U56C]	0.000132 ± 4.7e-05 s⁻¹	0.000353 ± 0.00011 s⁻¹	0.000492 ± 0.00016 s⁻¹	–
AUAAAAGCGCCAGAACUACAGAAAUGUAGUCGACGAGGAGGAGGUUUAUCGAAUUUUCGGCAGAUGCCUCCAAA [U31C G62A]	< 1e-05 s⁻¹	< 1e-05 s⁻¹	< 1e-05 s⁻¹	< 1e-05 s⁻¹
AUAAAAGCGCCAGAACUACAGAAAUGUAGGUGACGAGGAUGCGGUUUAUCGAAUUUUAGGCGGAUGCCUCCAAA [U30G G40U A42C C58A]	< 1e-05 s⁻¹	< 1e-05 s⁻¹	< 1e-05 s⁻¹	–
AUAAAAGCGCCAGAACUACAGAAAUGUAGCUGACGAGGAGGAGGUUUAUCGAAUUUUUGGCGGAUGGCUCAAAA [U30C C58U C67G C71A]	0.000188 ± 5.3e-05 s⁻¹	0.000584 ± 0.00013 s⁻¹	0.000197 ± 4.3e-05 s⁻¹	–
AUAAAAGCGCCAGAACUACAGAAAUGUAGUCGACCAGGACGAGGUUUAUCGAAUUUUCGGCGGAUGCCUCCAAA [U31C G35C G40C]	< 1e-05 s⁻¹	–	< 1e-05 s⁻¹	< 1e-05 s⁻¹
AUAAAAGCGCCAGAACUACAGAAAUGUAGGUGACUAGGAGGAGUUGUAUCGAAUUUUCGGCGGACGCCUCCAAA [U30G G35U G44U U46G U65C]	< 1e-05 s⁻¹	< 1e-05 s⁻¹	< 1e-05 s⁻¹	–
AUAAAAGCGCCAGAACUACAGAAAUGUAGCUGACUAGGAGGAGGUUUAUCGAAUUUUUGGAGGAUGCCUCCAAA [U30C G35U C58U C61A]	< 1e-05 s⁻¹	< 1e-05 s⁻¹	< 1e-05 s⁻¹	–
AUAAAAGCGCCAGAACUACAGAAAUGUAGCUGACCAGGAGGAGGUUUAUCGAAUUUUCGGCGGAUGCCUCCAAA [U30C G35C]	< 1e-05 s⁻¹	< 1e-05 s⁻¹	< 1e-05 s⁻¹	< 1e-05 s⁻¹
AUAAAAGCGCCAGAACUACAGAAAUGUAGUAGACGAGGAGGAGGUGUAUCGAAUUUUCGGCGGAUACCUCCAAA [U31A U46G G66A]	6.92e-05 ± 2.9e-05 s⁻¹	0.000303 ± 0.00015 s⁻¹	0.000638 ± 0.00022 s⁻¹	–
AUAAAAGCGCCAGAACUACAGAAAUGUAGCUGACGCGGAGGAGGUUUAUGGAAUUUUCCGCGGAUGCCUCCAAA [U30C A36C C50G G59C]	0.000229 ± 9.7e-05 s⁻¹	–	–	–
AUAAAAGCGCCAGAACUACAGAAAUGUAGCUGACGAGGAGGUGGUUUAACGAAUUUUCGGCGGAUGCCUCCAAA [U30C A42U U49A]	< 1e-05 s⁻¹	< 1e-05 s⁻¹	< 1e-05 s⁻¹	–
AUAAAAGCGCCAGAACUACAGAAAUGUAGUCGACCAGGAGGAGGUUUAUCGAAUUUUCGGCGGAUGCCUCCAAA [U31C G35C]	< 1e-05 s⁻¹	< 1e-05 s⁻¹	< 1e-05 s⁻¹	< 1e-05 s⁻¹
AUAAAAGCGCCAGAACUACAGAAAUGUAGUCGACGAGGAAGAGGUUUAUCGAUUUUUCGGCGGAUGCCUCCAAA [U31C G40A A53U]	9.65e-05 ± 3.1e-05 s⁻¹	7.74e-05 ± 1.7e-05 s⁻¹	–	–
